Laboratory results taken from patent US20240352145A1, “EFFICACY OF ANTI-TROP-2-SN-38 ANTIBODY DRUG CONJUGATES FOR THERAPY OF TUMORS RELAPSED/REFRACTORY TO CHECKPOINT INHIBITORS” (Immunomedics, Inc., priority 2016, published 2024).
Read-outs that look alike come from different tables or passages of the source.

How the values were obtained:
[1] = test system: BxPC-3; test: dsDNA breaks, γH2AX induction in BxPC-3; format: cell-based, human; conditions: for Mean Fluorescence Intensity, γH2AX: untreated 2516 ± 191
Experimental: Assessment of Double-Stranded DNA Breaks In Vitro—For drug activity testing, BxPC-3 cells were seeded in 6-well plates at 5×10^5 cells/well and held at 37° C. overnight. […] The following morning, cells were trypsinized briefly, spun down, stained with Fixable Viability Stain 450 (BD Biosciences, San Jose, CA), washed with 1% BSA-PBS, and then fixed in 4% formalin for 15 min, washed again and permeabilized in 0.15% Triton-X100 in PBS for another 15 min. After washing twice with 1% BSA-PBS, cells were incubated with mouse anti-γH2AX-AF488 (EMD Millipore Corporation, Temecula, CA) for 45 min at 4° C. The signal intensity of γH2AX was measured by flow cytometry using a BD FACSCanto (BD Biosciences, San Jose, CA).

[2] = test system: Trop-2+ human gastric carcinoma xenografts (NCI-N87); test: Effect of DAR on efficacy, NCI-N87 xenograft; format: in vivo, mouse; conditions: for median survival time (MST): 2 treatments 7 days apart, 0.5 mg
From the text: Effect of DAR on pharmacokinetics and anti-tumor efficacy in mice.

[3] = test system: COLO 205; test: In vitro cytotoxicity, COLO 205
From the text: (§1) Cell lines, antibodies, and chemotherapeutics—All human cancer cell lines used in this study were purchased from the American Type Culture Collection.

[4] = test system: diverse metastatic cancers
Experimental: To optimize cumulative treatment with minimal delays, phase II is focusing on 8 and 10 mg/kg (n=30 and 14, respectively).
Two ELISA methods were used to measure the clearance of the IgG (capture with anti-hRS7 idiotype antibody) and the intact conjugate (capture with anti-SN-38 IgG/probe with anti-hRS7 idiotype antibody). SN-38 was measured by HPLC.

[5] = test system: PC-3; test: In vitro cytotoxicity, PC-3
From the text: as §1

[6] = test system: BXPC3 model of human pancreatic cancer; conditions: mouse, in vivo, sc
[7] = test system: human pancreatic adenocarcinoma xenograft model (BxPC-3); test: Clinically-relevant dosing schemes, BxPC-3 xenograft; format: in vivo, mouse; conditions: for TTP: untreated 5.0±2.3
From the text: In Vivo Therapeutic Studies—NCr female athymic nude (nu/nu) mice, 4-8 weeks old, were purchased from Taconic Farms (Germantown, NY). NCI-N87 gastric tumor xenografts were established by harvesting cells from tissue culture and making a final cell suspension 1:1 in matrigel (BD Bioscience; San Jose, CA), with each mouse receiving a total of 1×10^7 cells s.c. in the right flank. For BxPC-3. xenografts of 1 g were harvested, and a tumor suspension made in HBSS to a concentration of 40% tumor w/v. This suspension was mixed 1:1 with matrigel for a final tumor suspension of 20% w/v. […] For IHC, tumors were allowed to grow to approximately 0.5 cm^3 before the mice were euthanized and the tumors removed, formalin-fixed and paraffin-embedded. For therapy studies, mice were randomized into treatment groups and therapy begun when tumor volumes were approximately 0.25 cm^3.
Mice were euthanized and deemed to have succumbed to disease once tumors grew to greater than 1.0 cm^3 in size. […] Time to progression (TTP) was determined as time post-therapy initiation when the tumor grew more than 20% in size from its nadir.
A human dose of 8 mg/kg translates to a murine dose of 98.4 mg/kg, or approximately 2 mg to a 20 g mouse.

[8] = esophageal cancer, 4 assessable patients

Substance: hRS7 IgG
- Percent Positive, γH2AX ([1]; BxPC-3, 20 μg/ml for 30 min, untreated 18.8 ± 6.3): 13.0 ± 0.6%
- Mean Fluorescence Intensity, γH2AX ([1]; BxPC-3, 20 μg/ml for 30 min): 2297 ± 18

Substance: IMMU-132
- median survival time (MST) ([2]; DAR 1.64): 21 days
- median survival time (MST) ([2]; DAR 3.28 (printed 3.38)): 25 days
- tumor growth inhibition (AUC) ([2]; DAR 6.89, 0.5 mg twice weekly for two weeks vs DAR 3.28, 1 mg): inhibited tumor growth significantly more than tumor-bearing animals treated with the 3.28 DAR conjugate
- median survival time (MST) ([2]; DAR 6.89): 39 days
- IC50 [3]: 1.95 nM
- dose-limiting toxicity ([4]; 8, then 12 and 18 mg/kg, days 1 and 8 of 21-day cycles): dose-limiting neutropenia
- median TTP in PDC patients ([4]; 8 wks for preceding last therapy): 11.9 wks
- stable disease, PDC ([4]; 13 CT-assessable PDC patients): 62%
- patients with long-term stable disease ([4]; 24 assessable patients, Phase I study): Over 80%
- partial response (PR) ([4]; 48 assessable patients (excluding PDC), RECIST/CT): 15%
- maximum reduction ([4]; CRC case, after 10 months of treatment): 65%
- CEA after treatment ([4]; CRC case, from 781 ng/mL): 26.5 ng/mL
- PD, number of patients ([4]; CRC, 18 assessable patients): 6
- PR, number of patients ([4]; CRC, 18 assessable patients): 1
- total response [PR+SD] ([4]; CRC, 18 assessable patients): 67%
- PD, number of patients ([4]; NSCLC, 5 assessable patients): 1
- PR, number of patients ([4]; NSCLC, 5 assessable patients): 1
- total response [PR+SD] ([4]; NSCLC, 5 assessable patients): 80%
- PD, number of patients ([4]; SCLC, 4 assessable patients): 2
- PR, number of patients ([4]; SCLC, 4 assessable patients): 2
- total response [PR+SD] ([4]; SCLC, 4 assessable patients): 50%
- PD, number of patients ([4]; TNBC, 8 assessable patients): 2
- PR, number of patients ([4]; TNBC, 8 assessable patients): 2
- total response [PR+SD] ([4]; TNBC, 8 assessable patients): 75%
- PD, number of patients ([4]; all 48 assessable patients): 14
- PR, number of patients ([4]; all 48 assessable patients): 7
- total response [PR+SD] ([4]; all 48 assessable patients): 79%
- total response [PR+SD] ([4]; all 48 assessable patients, listed as hRS7-SN-38): 71%
- PD, number of patients [4, 8]: 1
- PR, number of patients [4, 8]: 1
- total response [PR+SD] [4, 8]: 75%
- time to clearance of conjugate from serum ([4]; human, in vivo): ≤ 3 days
- Abdominal pain, Grade 3, number of patients ([4]; in vivo): 0
- Abdominal pain, Grade 4, number of patients ([4]; in vivo): 0
- Abdominal pain, TOTAL ([4]; in vivo): 11%
- Alopecia, TOTAL ([4]; in vivo): 40%
- Anemia, Grade 3 ([4]; in vivo): (4%)
- Anemia, Grade 3, number of patients ([4]; in vivo): 2
- Anemia, Grade 4, number of patients ([4]; in vivo): 0
- Anemia, TOTAL ([4]; in vivo): 13%
- Deep vein thrombosis, Grade 3 ([4]; in vivo): (2%)
- Deep vein thrombosis, Grade 3, number of patients ([4]; in vivo): 1
- Deep vein thrombosis, Grade 4, number of patients ([4]; in vivo): 0
- Deep vein thrombosis, TOTAL ([4]; in vivo): 2%
- Diarrhea, Grade 3 ([4]; in vivo): (9%)
- Diarrhea, Grade 3, number of patients ([4]; in vivo): 4
- Diarrhea, Grade 4, number of patients ([4]; in vivo): 0
- Diarrhea, TOTAL ([4]; in vivo): 47%
- Dysgeusia, Grade 3, number of patients ([4]; in vivo): 0
- Dysgeusia, Grade 4, number of patients ([4]; in vivo): 0
- Dysgeusia, TOTAL ([4]; in vivo): 15%
- Fatigue, Grade 3 ([4]; in vivo): (9%)
- Fatigue, Grade 3, number of patients ([4]; in vivo): 4
- Fatigue, Grade 4, number of patients ([4]; in vivo): 0
- Fatigue, TOTAL ([4]; in vivo): 55%
- Hypokalemia, Grade 3 ([4]; in vivo): (2%)
- Hypokalemia, Grade 3, number of patients ([4]; in vivo): 1
- Hypokalemia, Grade 4, number of patients ([4]; in vivo): 0
- Hypokalemia, TOTAL ([4]; in vivo): 11%
- Nausea, Grade 3, number of patients ([4]; in vivo): 0
- Nausea, Grade 4, number of patients ([4]; in vivo): 0
- Nausea, TOTAL ([4]; in vivo): 53%
- Neutropenia, Grade 3 ([4]; in vivo): (24%)
- Neutropenia, Grade 3, number of patients ([4]; in vivo): 11
- Neutropenia, Grade 4, number of patients (%) ([4]; in vivo): 2 (4%)
- Neutropenia, TOTAL ([4]; in vivo): 43%
- Pyrexia, Grade 3, number of patients ([4]; in vivo): 0
- Pyrexia, Grade 4, number of patients ([4]; in vivo): 0
- Pyrexia, TOTAL ([4]; in vivo): 13%
- SN-38 in the serum bound to the IgG ([4]; in vivo): > 95%
- Vomiting, Grade 3 ([4]; in vivo): (2%)
- Vomiting, Grade 3, number of patients ([4]; in vivo): 1
- Vomiting, Grade 4, number of patients ([4]; in vivo): 0
- Vomiting, TOTAL ([4]; in vivo): 32%
- WBC Decrease, Grade 3 ([4]; in vivo): (2%)
- WBC Decrease, Grade 3, number of patients ([4]; in vivo): 1
- WBC Decrease, Grade 4, number of patients ([4]; in vivo): 0
- WBC Decrease, TOTAL ([4]; in vivo): 6%
- anti-hRS7 or anti-SN-38 antibodies ([4]; in vivo): No anti-hRS7 or anti-SN-38 antibodies were detected
- anti-hRS7 or anti-SN-38 antibody response ([4]; in vivo): no anti-hRS7 or anti-SN-38 antibody response has been detected
- clearance of intact conjugate vs IgG ([4]; in vivo): cleared more quickly than the IgG
- diarrhea ≥G3 ([4]; in vivo): 9%
- fatigue ≥G3 ([4]; in vivo): 9%
- incidence of Grade 3 or higher, all other adverse events ([4]; in vivo): less than 10%
- median time to progression (TTP), PDC ([4]; in vivo): 12.7 wks
- nausea ≥G3 ([4]; in vivo): 0%
- neutropenia Grade 4 ([4]; in vivo): 4%
- neutropenia ≥Grade 3 ([4]; in vivo): 28%
- vomiting ≥G3 ([4]; in vivo): 2%
- reduction in target lesions, first CT ([4]; person, CRC, 8 mg/kg): 37%
- primary target lesion size at first CT ([4]; person, NSCLC, 5.6 cm at start, after 6th dose): 3.2 cm
- reduction in target lesions ([4]; person, SCLC, 12 mg/kg reduced to 6.8 mg/kg, after two months): 38%
- TTP ([4]; remaining 48 patients): ≥ 12.6 wks
- IC50 [5]: 4.24 nM
- therapeutic efficacy [6]: better therapeutic efficacy than control treatments
- anti-tumor effect vs untreated ([7]; all three dosing schemes of fractionated 2 mg): significant anti-tumor effect
- TTP ([7]; eight doses of 0.25 mg): 31.7 ± 14.5 days
- TTP ([7]; two doses of 1 mg (days 1 and 15)): 22.4 ± 10.1 days
- induction of γH2AX vs non-targeting control ADC ([1]; BxPC-3, 30 min exposure): greater than two-fold induction
- Mean Fluorescence Intensity, γH2AX ([1]; BxPC-3, 20 μg/ml for 30 min): 5349 ± 234
